Test results: publication PMC8977243 (Journal of molecular biology, 2022)

B1: His6-ERK2 (enzyme, rat, UniProt P63086 1-358, looked up)
chain: MAAAAAAGPEMVRGQVFDVGPRYTNLSYIGEGAYGMVCSAYDNLNKVRVAIKKISPFEHQTYCQRTLREIKILLRFRHENIIGINDIIRAPTIEQMKDVYIVQDLMETDLYKLLKTQHLSNDHICYFLYQILRGLKYIHSANVLHRDLKPSNLLLNTTCDLKICDFGLARVADPDHDHTGFLTEYVATRWYRAPEIMLNSKGYTKSIDIWSVGCILAEMLSNRPIFPGKHYLDQLNHILGILGSPSQEDLNCIINLKARNYLLSLPHKNKVPWNRLFPNADSKALDLLDKMLTFNPHKRIEVEQALAHPYLEQYYDPSDEPIAEAPFKFDMELDDLPKEKLKELIFEETARFQPGYRS

Assays:
MBP-arrestin-2 = MBP-arrestin-2 (bovine, UniProt P17870 1-418); assay: pull-down
His6-ERK2 = biological target: B1; assay: peptide or protein array

binding result (MBP-arrestin-2) | binding result (His6-ERK2) | Binder
binds | – | B1
– | binds | CKVYTLTPFLANNRE [arrestin-2-derived peptide CKVYTLTPFLANNRE]
